Results on five molecules are retold here after PMC6899631, “An essential pentatricopeptide repeat protein in the apicomplexan remnant chloroplast”.

The target in series [1] is PfPPR1 minus the His6-TRX tag (tag cleaved by HRV 3C protease) (Plasmodium falciparum). The series is described as follows: AUC; sedimentation velocity, PfPPR1 minus His6-TRX tag at 1.8 mg/mL, continuous c(s) distribution model.
Series [2] has as its target His6-TRX-PfPPR1 (Plasmodium falciparum apicoplast pentatricopeptide repeat protein PPR1, minus the bipartite leader, with N-terminal TRX-His6 tag) (Plasmodium falciparum). The series is described as follows: SEC; S200 10/300 analytical gel filtration column in 50 mM Tris pH 8.0, 200 mM NaCl, 5 mM DTT; sample in 10 mM HEPES pH 7.5, 20 mM KCl, 1 mM MgCl2, 1 mM DTT, 15 min at room temperature; control without RNA (with RNA 4 or RNA 5 the dimer eluted earlier, with RNA bound).

Series [3] has as its target T1, His6-TRX-PfPPR1 (Plasmodium falciparum, UniProt Q8IM30 121-608).
T1 sequence: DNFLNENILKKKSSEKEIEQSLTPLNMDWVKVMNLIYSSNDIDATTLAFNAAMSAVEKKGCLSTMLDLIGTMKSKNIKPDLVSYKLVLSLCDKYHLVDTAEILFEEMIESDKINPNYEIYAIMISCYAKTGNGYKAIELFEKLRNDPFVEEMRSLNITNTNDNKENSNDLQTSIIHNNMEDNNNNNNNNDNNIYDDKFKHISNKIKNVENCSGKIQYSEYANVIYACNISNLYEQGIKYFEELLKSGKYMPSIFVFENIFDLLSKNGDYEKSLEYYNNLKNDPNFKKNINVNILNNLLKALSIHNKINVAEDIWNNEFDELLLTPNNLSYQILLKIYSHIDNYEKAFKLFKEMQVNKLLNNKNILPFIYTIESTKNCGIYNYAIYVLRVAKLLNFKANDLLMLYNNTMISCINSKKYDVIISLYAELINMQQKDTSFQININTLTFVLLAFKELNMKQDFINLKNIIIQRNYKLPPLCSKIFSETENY
The series is described as follows: pull-down; Pull-down: 10 mM HEPES pH 7.5, 20 mM KCl, 1 mM MgCl2, 1 mM DTT, room temperature 15 min; 400 nM biotinylated RNA, 800 nM protein (Results state 1:1 molar). Gel. The following applies: protein: recombinant; tags: N-terminal TRX-His6 (HRV 3C cleavable); chain copies: 2; label: 3' biotin (pull-down).

Consider “PfPPR1 minus the His6-TRX tag (tag cleaved by HRV 3C protease) (natural protein)”, for which the stoichiometry N – broadly, a count of units in the complex or per binding partner – in series [1] came to 2.

For the molecule “His6-TRX-PfPPR1 (Plasmodium falciparum apicoplast pentatricopeptide repeat protein PPR1, minus the bipartite leader, with N-terminal TRX-His6 tag) (natural protein)”, the stoichiometry N in series [2] was 2.

In the case of ACGACAUGACGAGGUCGGA (ssRNA) [RNA oligo 3], the binding result in series [3] is on record as “no binding”.

In the case of ACGACAUUAUAUGGUCGGA (ssRNA) [RNA oligo 1], the binding result in series [3] is reported as “binds”.

As to ACGACAUUAUAAGGUCGGA (ssRNA) [RNA oligo 2], the binding result in series [3] is given as “binds”.
